Key:
[1] = biological target: Arkadia 119 aa polypeptide (human) (UniProt Q6ZNA4); assay: ITC; Microcal PEAQ ITC, 25 °C; 75-200 uM Arkadia polypeptide in the cell, 0.75-2 mM UBCH5B from the syringe in 2 uL injections; single site-binding model
[2] = biological target: Arkadia RING 68 aa (human) (UniProt Q6ZNA4); assay: as above
Sequence of Arkadia RING 68 aa (human) (Q6ZNA4 927-994): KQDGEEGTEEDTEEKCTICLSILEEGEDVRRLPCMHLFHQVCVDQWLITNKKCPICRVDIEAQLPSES

Sequence of UBCH5B (P62837 whole entry): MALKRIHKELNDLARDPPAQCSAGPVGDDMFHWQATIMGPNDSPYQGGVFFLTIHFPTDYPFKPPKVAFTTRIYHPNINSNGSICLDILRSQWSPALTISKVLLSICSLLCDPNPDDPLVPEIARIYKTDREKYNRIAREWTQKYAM
Sequence of Arkadia 119 aa polypeptide (human) (Q6ZNA4 876-994): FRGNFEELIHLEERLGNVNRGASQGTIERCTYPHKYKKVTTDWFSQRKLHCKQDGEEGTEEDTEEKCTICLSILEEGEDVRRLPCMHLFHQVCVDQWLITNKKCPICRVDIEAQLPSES

dH [1]: -4.7 kcal/mol
stoichiometry N [1]: 0.6
dH [2]: 3.1 kcal/mol
stoichiometry N [2]: 1
Substance: UBCH5B (from UniProt P62837 1-147) (enzyme)

— article PMC9501438
